# Data reported in patent publication US20220213176A1.
# Target: SARS-CoV-2 K417N+E484K+N501Y+D614G mutant pseudovirus spike (spikeΔ19) (SARS-CoV-2) (UniProt P0DTC2)
# Test: cell-based or functional assay
substance,measurement,value
S309 dimer (antibody),"NT50 (B.1.351) (nM), pseudovirus neutralization",0.36 nM
